3 molecules from US20260258117A1 (ACADEMISCH ZIEKENHUIS LEIDEN H O D N LUMC, published 2026) can be followed below.

The target of assay [1] is T1, Complement Factor H protein (human, UniProt P08603 19-1231).
T1 construct: Plasma protein, bought purified or present in normal human serum; also called FH; CFH
The assay is described as follows: bispecific ELISA. As to the method:
BsAbs were tested for binding to both antigens in a bispecific ELISA. MaxiSorp plates (Thermo Scientific, Nunc, 430341) were coated with 50 μL/well BSA-DNP (10 μg/mL, Biosearch Technologies, D-5050-10, conjugation ration 13) in coating buffer (0.1 M Na₂CO₃/NaHCO₃PH 9.6) for 1 hour at 37° C. After every incubation, plates were washed three times with PBS/0.05% Tween 20. Plates were blocked with 100 μL/well PBS/1% BSA for 1 hour at 37° C. After washing, plates were incubated with 50 μL/well (bs) Abs diluted in PBS/0.05% Tween 20/1% BSA (PTB buffer) for 1 hour at 37° C. Next, 1 μg/mL FH (CompTech, A137) or C4BP (CompTech, A109) diluted in PTB buffer was added. FH was detected using goat anti-human FH (Quidel, A312) and HRP-labeled rabbit anti-goat Ig (Dako, P0449), and C4BP was detected using rabbit anti-human C4BP (kind gift from Anna M. Blom, Malmö, Sweden) and HRP-labeled goat anti-rabbit Ig (Dako, P0448), all diluted in PTB buffer. Plates were developed by incubating with 50 μL/well ABTS (Merck, A1888-5G) containing 1:2000 diluted H₂O₂ (Merck, 1072090250), and read at 415 nm using a microplate reader (BIO-RAD iMark). It was confirmed by ELISA that the bsAbs can bind to a specific target (e.g., DNP as a model antigen) as well as FH or C4BP, whereas the parental monospecific antibodies cannot (FIG. 1A).
(ELISA stands for enzyme-linked immunosorbent assay.)

Assay [2] concerns the target T1, Complement Factor H protein. Nature of the assay: flow cytometry, FH detected on Ramos cells treated with bsAb and normal human serum. As to the method:
Ramos cells (originally from ATCC) were plated at 100,000 cells/well (V-bottom microplate, Greiner Bio-One, 651101). Cells were incubated with 100 μL/well samples containing 0.3 μg/mL anti-CD20 wild-type with or without 20 μg/mL bsAbs (anti-FH x anti-HLA I and controls) with or without 10 μg/mL FH for 30 minutes. After every incubation, cells were washed with 150 μL/well PBS/1% FCS. Cells were incubated with 100 μL/well 10% NHS in RPMI (for FH detection in the presence of 50 μg/mL eculizumab) for 45 minutes at 37° C. Cell viability was measured by adding 100 μL/well 7-AAD (BD Pharmingen, 559925) 1:200 diluted in PBS/1% FCS. FH was detected using mouse anti-human FH (1:100, OX-23, generated in-house) and goat anti-mouse IgG AF488 (1:50, Life Technologies, A11001). Cells were measured using a FACSCanto flow cytometer (BD Biosciences).
(A flow cytometer gives signals particle by particle.)

The target in another assay is T2, C4b-binding protein (human, UniProt P04003 49-597; P20851 18-252).
T2 construct: also called C4BP
T2 sequence (looked up) 1: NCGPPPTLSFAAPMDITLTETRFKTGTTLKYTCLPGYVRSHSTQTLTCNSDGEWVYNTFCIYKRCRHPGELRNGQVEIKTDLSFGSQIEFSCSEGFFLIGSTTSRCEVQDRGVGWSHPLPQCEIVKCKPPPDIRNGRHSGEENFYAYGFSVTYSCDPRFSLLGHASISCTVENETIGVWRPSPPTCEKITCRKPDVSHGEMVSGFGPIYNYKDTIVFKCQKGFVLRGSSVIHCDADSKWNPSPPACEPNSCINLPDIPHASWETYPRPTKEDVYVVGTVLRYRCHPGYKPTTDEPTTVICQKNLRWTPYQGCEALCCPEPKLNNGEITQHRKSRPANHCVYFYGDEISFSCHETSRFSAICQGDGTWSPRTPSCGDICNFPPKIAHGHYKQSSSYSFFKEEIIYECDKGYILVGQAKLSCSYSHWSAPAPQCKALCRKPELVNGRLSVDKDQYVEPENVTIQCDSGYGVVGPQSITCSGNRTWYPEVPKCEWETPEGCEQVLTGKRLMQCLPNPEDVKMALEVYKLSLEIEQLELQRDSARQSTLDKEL
T2 sequence (looked up) 2: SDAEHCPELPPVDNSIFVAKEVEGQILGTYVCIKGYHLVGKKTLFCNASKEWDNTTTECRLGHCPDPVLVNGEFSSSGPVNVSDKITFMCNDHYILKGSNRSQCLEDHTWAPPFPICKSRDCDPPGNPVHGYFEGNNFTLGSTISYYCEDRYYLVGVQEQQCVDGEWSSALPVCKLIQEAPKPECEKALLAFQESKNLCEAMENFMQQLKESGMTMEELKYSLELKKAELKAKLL
Nature of the assay: bispecific ELISA and complement activation assay on biotinylated BSA-DNP, C4BP detected.

T1 sequence (P08603 19-1231 limits assumed): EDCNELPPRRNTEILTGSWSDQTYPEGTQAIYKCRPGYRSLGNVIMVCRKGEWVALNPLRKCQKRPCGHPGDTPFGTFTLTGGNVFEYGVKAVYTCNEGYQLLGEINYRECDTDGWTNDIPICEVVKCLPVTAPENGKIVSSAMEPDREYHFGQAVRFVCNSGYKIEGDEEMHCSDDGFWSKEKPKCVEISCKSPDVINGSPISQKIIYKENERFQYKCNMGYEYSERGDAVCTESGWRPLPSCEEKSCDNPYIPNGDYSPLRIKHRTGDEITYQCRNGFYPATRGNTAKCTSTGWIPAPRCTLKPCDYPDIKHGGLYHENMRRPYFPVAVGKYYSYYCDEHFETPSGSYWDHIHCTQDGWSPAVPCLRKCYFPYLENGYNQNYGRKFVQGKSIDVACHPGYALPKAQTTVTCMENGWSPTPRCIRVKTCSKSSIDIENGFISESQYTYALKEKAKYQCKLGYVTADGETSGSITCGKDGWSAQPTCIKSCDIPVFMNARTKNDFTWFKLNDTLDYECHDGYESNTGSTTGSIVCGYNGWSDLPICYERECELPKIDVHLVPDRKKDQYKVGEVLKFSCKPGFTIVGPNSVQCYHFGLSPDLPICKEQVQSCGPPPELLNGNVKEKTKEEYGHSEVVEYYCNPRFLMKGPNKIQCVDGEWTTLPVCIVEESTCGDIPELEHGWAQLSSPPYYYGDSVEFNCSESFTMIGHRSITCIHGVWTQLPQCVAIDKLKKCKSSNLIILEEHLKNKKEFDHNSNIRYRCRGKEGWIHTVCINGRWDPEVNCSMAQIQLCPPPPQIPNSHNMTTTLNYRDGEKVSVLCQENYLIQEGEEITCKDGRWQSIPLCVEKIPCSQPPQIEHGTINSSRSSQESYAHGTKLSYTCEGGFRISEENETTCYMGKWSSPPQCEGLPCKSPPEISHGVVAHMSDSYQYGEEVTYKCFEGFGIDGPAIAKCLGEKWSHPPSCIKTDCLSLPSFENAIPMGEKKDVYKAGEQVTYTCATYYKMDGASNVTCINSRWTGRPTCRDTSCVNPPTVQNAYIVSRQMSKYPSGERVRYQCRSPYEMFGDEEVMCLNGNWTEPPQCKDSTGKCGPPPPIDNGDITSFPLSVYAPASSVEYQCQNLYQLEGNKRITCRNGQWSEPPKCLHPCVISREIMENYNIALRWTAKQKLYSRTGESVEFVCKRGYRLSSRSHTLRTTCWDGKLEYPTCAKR

B1: Anti-FH F405L LALAPG, Anti-DNP K409R LALAPG (bispecific antibody, human IgG1, kappa, L234A L235A)
heavy 1: EVQLQQSGPELVKPGASVKISCKASGYSFTGYFIHWVKQSHVKSLEWFGRINPYNGATDYNQNFKDKAILTIDESSSTAYMEIHSLTSDDSAVYYCARGLFLDYWGQGTTLTVSSASTKGPSVFPLAPSSKSTSGGTAALGCLVKDYFPEPVTVSWNSGALTSGVHTFPAVLQSSGLYSLSSVVTVPSSSLGTQTYICNVNHKPSNTKVDKRVEPKSCDKTHTCPPCPAPEAAGGPSVFLFPPKPKDTLMISRTPEVTCVVVDVSHEDPEVKFNWYVDGVEVHNAKTKPREEQYNSTYRVVSVLTVLHQDWLNGKEYKCKVSNKALGAPIEKTISKAKGQPREPQVYTLPPSREEMTKNQVSLTCLVKGFYPSDIAVEWESNGQPENNYKTTPPVLDSDGSFLLYSKLTVDKSRWQQGNVFSCSVMHEALHNHYTQKSLSLSPGK
light 1: DILMTQSPSSMSVSLGDTVSITCHASQGITSNIGWLQQKPGKSFKGLIYHGTNLEDGVPSRFSGSGSGADYSLTISSLESEDFADYYCVQYAQFPWTFGGGTKLEIKRTVAAPSVFIFPPSDEQLKSGTASVVCLLNNFYPREAKVQWKVDNALQSGNSQESVTEQDSKDSTYSLSSTLTLSKADYEKHKVYACEVTHQGLSSPVTKSFNRGEC
heavy 2: DVRLQESGPGLVKPSQSLSLTCSVTGYSITNSYYWNWIRQFPGNKLEWMVYIGYDGSNNYNPSLKNRISITRDTSKNQFFLKLNSVTTEDTATYYCARATYYGNYRGFAYWGQGTLVTVSAASTKGPSVFPLAPSSKSTSGGTAALGCLVKDYFPEPVTVSWNSGALTSGVHTFPAVLQSSGLYSLSSVVTVPSSSLGTQTYICNVNHKPSNTKVDKRVEPKSCDKTHTCPPCPAPEAAGGPSVFLFPPKPKDTLMISRTPEVTCVVVDVSHEDPEVKFNWYVDGVEVHNAKTKPREEQYNSTYRVVSVLTVLHQDWLNGKEYKCKVSNKALGAPIEKTISKAKGQPREPQVYTLPPSREEMTKNQVSLTCLVKGFYPSDIAVEWESNGQPENNYKTTPPVLDSDGSFFLYSRLTVDKSRWQQGNVFSCSVMHEALHNHYTQKSLSLSPGK
light 2: DIRMTQTTSSLSASLGDRVTISCRASQDISNYLNWYQQKPDGTVKLLIYYTSRLHSGVPSRFSGSGSGTDYSLTISNLEQEDIATYFCQQGNTLPWTFGGGTKLEIKRTVAAPSVFIFPPSDEQLKSGTASVVCLLNNFYPREAKVQWKVDNALQSGNSQESVTEQDSKDSTYSLSSTLTLSKADYEKHKVYACEVTHQGLSSPVTKSFNRGEC
notes: Made by controlled Fab-arm exchange of the two parental IgG1 kappa antibodies; also called anti-FH x anti-DNP
In the case of B1, the binding result in assay [1] was “binds”.

B2: Anti-FH F405L LALAPG, Anti-HLA I K409R LALAPG (bispecific antibody, human IgG1, kappa, L234A L235A)
heavy 1: B1 heavy 1
light 1: B1 light 1
heavy 2: QVQLKQSGPGLVQPSQSLSLTCTVSGFSLTSYGVHWVRQPPGKGLEWLGVIWSGGSTDYNAAFISRLSIRKDNSKSQVFFKMNSLQADDTAIYYCARTFTTSTSAWFAYWGQGTLVTVSAASTKGPSVFPLAPSSKSTSGGTAALGCLVKDYFPEPVTVSWNSGALTSGVHTFPAVLQSSGLYSLSSVVTVPSSSLGTQTYICNVNHKPSNTKVDKRVEPKSCDKTHTCPPCPAPEAAGGPSVFLFPPKPKDTLMISRTPEVTCVVVDVSHEDPEVKFNWYVDGVEVHNAKTKPREEQYNSTYRVVSVLTVLHQDWLNGKEYKCKVSNKALGAPIEKTISKAKGQPREPQVYTLPPSREEMTKNQVSLTCLVKGFYPSDIAVEWESNGQPENNYKTTPPVLDSDGSFFLYSRLTVDKSRWQQGNVFSCSVMHEALHNHYTQKSLSLSPGK
light 2: SIVMTQTPKFLLVSAGDRVTITCKASQSVSNDVAWYQQKPGQSPKLLIYYASNRYTGVPDRFTGSGYGTDFTFTISTVQAEDLAVYFCQQDYSSPPWTFGGGTKLEIRRTVAAPSVFIFPPSDEQLKSGTASVVCLLNNFYPREAKVQWKVDNALQSGNSQESVTEQDSKDSTYSLSSTLTLSKADYEKHKVYACEVTHQGLSSPVTKSFNRGEC
notes: Made by controlled Fab-arm exchange; also called anti-FH x anti-HLA I
Regarding B2, the binding result in assay [2] is reported as “binds”.

B3: Anti-C4BP F405L LALAPG, Anti-biotin K409R LALAPG (bispecific antibody, human IgG1, kappa, L234A L235A)
heavy 1: EVQLVESGGGLVKPGGSLKLSCAVSGFIFSDYYMYWVRQTPEKRLEWVATISDGGVYTYYPDSMKGRFTISRDNAKNNLYLQMSSLKSEDTAMYYCVRGDYYGNSLDYWGQGTSVTVSSASTKGPSVFPLAPSSKSTSGGTAALGCLVKDYFPEPVTVSWNSGALTSGVHTFPAVLQSSGLYSLSSVVTVPSSSLGTQTYICNVNHKPSNTKVDKRVEPKSCDKTHTCPPCPAPEAAGGPSVFLFPPKPKDTLMISRTPEVTCVVVDVSHEDPEVKFNWYVDGVEVHNAKTKPREEQYNSTYRVVSVLTVLHQDWLNGKEYKCKVSNKALGAPIEKTISKAKGQPREPQVYTLPPSREEMTKNQVSLTCLVKGFYPSDIAVEWESNGQPENNYKTTPPVLDSDGSFLLYSKLTVDKSRWQQGNVFSCSVMHEALHNHYTQKSLSLSPGK
light 1: DVVMTQTPLTLSITIGQPASISCKSSQSLLDGDGKTYLNWLLQRPGQSPKRLIYLVSKLDSGVPDRFTGSGSGTDFTLKISRVEAEDLGVYYCCQGTHFPWTFGRGTKLEIKRTVAAPSVFIFPPSDEQLKSGTASVVCLLNNFYPREAKVQWKVDNALQSGNSQESVTEQDSKDSTYSLSSTLTLSKADYEKHKVYACEVTHQGLSSPVTKSFNRGEC
heavy 2: QVKLQESGPGLVAPSQSLSITCTVSGFSLTAYGVDWVRQPPGKGLEWLGVIWGGGRTNYNSGLMSRLSIRKDNSKSQVFLTMNSLQTDDTAKYYCVKHTNWDGGFAYWGQGTTVTVSSASTKGPSVFPLAPSSKSTSGGTAALGCLVKDYFPEPVTVSWNSGALTSGVHTFPAVLQSSGLYSLSSVVTVPSSSLGTQTYICNVNHKPSNTKVDKRVEPKSCDKTHTCPPCPAPEAAGGPSVFLFPPKPKDTLMISRTPEVTCVVVDVSHEDPEVKFNWYVDGVEVHNAKTKPREEQYNSTYRVVSVLTVLHQDWLNGKEYKCKVSNKALGAPIEKTISKAKGQPREPQVYTLPPSREEMTKNQVSLTCLVKGFYPSDIAVEWESNGQPENNYKTTPPVLDSDGSFFLYSRLTVDKSRWQQGNVFSCSVMHEALHNHYTQKSLSLSPGK
light 2: DVVMTQSPLSLPVSLGDQASISCRSGQGLVYSNGDTYLHWYLQKPGQSPKLLIYKVSNRFSGVPDRFSGSGSGTDFTLKISRVEAEDLGVYFCSQSTHFPFTFGSGTKLEIKRTVAAPSVFIFPPSDEQLKSGTASVVCLLNNFYPREAKVQWKVDNALQSGNSQESVTEQDSKDSTYSLSSTLTLSKADYEKHKVYACEVTHQGLSSPVTKSFNRGEC
notes: Made by controlled Fab-arm exchange; also called anti-C4BP x anti-biotin
On to B3, for which the binding result with C4b-binding protein is on record as “binds”.
